Assay results published in US20220073608A1 (JIANGSU HUAIYU PHARMACEUTICAL, published 2022).

T1: hSEMA4D ECD-His (His-tagged human SEMA4D protein extracellular domain, Met22-Arg734) (human, UniProt Q92854 22-734)
T1 construct: Expressed in CHO-S cells, purified on Ni column; also called protein immunogen; immunogen A; not shown: His tag of the pCP vector
T1 sequence: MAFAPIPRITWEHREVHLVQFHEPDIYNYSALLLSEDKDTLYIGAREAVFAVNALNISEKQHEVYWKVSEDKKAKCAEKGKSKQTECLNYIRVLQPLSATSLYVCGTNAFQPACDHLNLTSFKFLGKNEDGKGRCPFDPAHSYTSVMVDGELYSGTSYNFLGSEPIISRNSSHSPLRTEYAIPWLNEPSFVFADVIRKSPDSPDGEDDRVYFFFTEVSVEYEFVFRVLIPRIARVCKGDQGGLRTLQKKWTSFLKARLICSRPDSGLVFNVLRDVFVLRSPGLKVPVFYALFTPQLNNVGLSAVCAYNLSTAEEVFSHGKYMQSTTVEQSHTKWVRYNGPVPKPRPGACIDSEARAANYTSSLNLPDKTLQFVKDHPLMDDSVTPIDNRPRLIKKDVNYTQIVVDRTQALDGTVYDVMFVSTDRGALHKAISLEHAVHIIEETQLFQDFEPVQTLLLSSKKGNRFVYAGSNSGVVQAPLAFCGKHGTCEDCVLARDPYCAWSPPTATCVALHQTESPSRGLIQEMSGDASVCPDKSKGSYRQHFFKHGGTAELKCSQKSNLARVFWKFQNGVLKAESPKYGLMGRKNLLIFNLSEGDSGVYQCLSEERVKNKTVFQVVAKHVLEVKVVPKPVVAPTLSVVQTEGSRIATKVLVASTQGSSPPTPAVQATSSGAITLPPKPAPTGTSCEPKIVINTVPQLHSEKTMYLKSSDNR

T2: human SEMA4D, full length, on CHO-K1 cells (CHO-K1 hSEMA4D) (human, UniProt Q92854 22-862)
T2 construct: whole, on cells; also called human SEMA4D recombinant cells
T2 sequence (looked up): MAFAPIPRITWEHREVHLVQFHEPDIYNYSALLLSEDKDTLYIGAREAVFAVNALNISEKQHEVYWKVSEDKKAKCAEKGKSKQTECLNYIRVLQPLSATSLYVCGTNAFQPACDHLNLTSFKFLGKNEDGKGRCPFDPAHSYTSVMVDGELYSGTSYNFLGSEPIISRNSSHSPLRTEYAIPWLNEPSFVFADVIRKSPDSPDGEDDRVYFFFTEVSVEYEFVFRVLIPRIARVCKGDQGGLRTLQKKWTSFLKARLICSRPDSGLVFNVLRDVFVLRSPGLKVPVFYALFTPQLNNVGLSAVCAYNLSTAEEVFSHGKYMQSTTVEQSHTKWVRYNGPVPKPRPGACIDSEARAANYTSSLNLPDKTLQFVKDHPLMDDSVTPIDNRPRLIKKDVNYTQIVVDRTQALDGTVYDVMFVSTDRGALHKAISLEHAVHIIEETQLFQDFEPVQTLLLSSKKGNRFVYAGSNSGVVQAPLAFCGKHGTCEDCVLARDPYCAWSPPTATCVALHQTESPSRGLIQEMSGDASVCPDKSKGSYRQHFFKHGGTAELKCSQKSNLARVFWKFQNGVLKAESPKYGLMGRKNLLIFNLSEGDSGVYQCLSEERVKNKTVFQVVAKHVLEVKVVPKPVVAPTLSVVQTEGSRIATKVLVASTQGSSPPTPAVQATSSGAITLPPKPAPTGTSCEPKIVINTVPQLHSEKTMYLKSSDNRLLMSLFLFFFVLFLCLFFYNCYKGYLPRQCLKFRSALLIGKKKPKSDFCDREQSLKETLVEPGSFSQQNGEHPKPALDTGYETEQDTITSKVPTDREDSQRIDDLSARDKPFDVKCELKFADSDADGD


What was measured:
[1] = target: T1, hSEMA4D ECD-His (His-tagged human …); experiment: ELISA, coated hSEMA4D ECD-His; Ab 0.0533 nM
Protocol: (§1) First, hSEMA4D ECD-His was diluted with PBS to a final concentration of 1.0 μg/mL, and then was added to a 96-well ELISA plate, 100 μL per well, sealed with plastic film and incubated overnight at 4° C. On the next day, the plate was washed with a plate washing solution, that is, PBS buffer containing 0.05% (v/v) Tween20, for 4 times, and added with blocking solution, that is, PBS buffer containing 0.05% (v/v) Tween20 and 2% (w/w) BSA, blocked at 37° C. for 1 hour. The blocking solution was poured out and the plate was washed 4 times with the plate washing solution. 100 μL of the purified leading antibodies obtained in Examples 1 and 2 was added to each well. After incubation at 37° C. for 1 hour, the plate was washed 4 times with a plate washing solution. 100 μL of horseradish peroxidase (HRP) labeled secondary antibody (purchased from Sigma) was added at a dilution of 1:10000 to each well, and the plate was incubated at 37° C. for 1 hour, and washed 4 times with a plate washing solution. 100 μL TMB substrate was added to each well, and the plate was incubated at room temperature for 5 minutes, and added with 100 μL stop solution (1.0N HCl) to each well. A microplate reader (SpectraMax M5e, purchased from Molecular Device) was used to read the A450 nm value. […] Wherein, the data in the table was the OD450 nm value.

[2] = target: T2, human SEMA4D, full length, on CHO-K1 …; experiment: FACS, CHO-K1 hSEMA4D cells; Ab 0.534 nM
Protocol: The medium was aspirated, the cells were washed once with PBS buffer (purchased from Invitrogen), and then treated with cell dissociation fluid (TrypLE™ Express Enzyme, purchased from Life technology), and the cells were collected. After the cells counted, the cells were washed once with PBS phosphate buffer, and diluted to 3×10⁶ cells per milliliter, and added to the 96-well FACS reaction plate as 100 μL per well. 2% (w/w) fetal calf serum was added to PBS phosphate buffer as FACS buffer, with which the cells were washed once by centrifugation at 2000 rpm 4° C. 100 μL of diluted and purified leading antibodies was added to each well and the plate was incubated for 1 hour on ice. […] Cells were washed 2 times by centrifugation with FACS buffer. The cells were suspended with 200 μL of FACS buffer, and FACS (FACS Verse, purchased from BD) was used to detect and analyze the results.

[3] = target: T1, hSEMA4D ECD-His (His-tagged human …); experiment: ELISA, coated hSEMA4D ECD-His; Ab 0.000085 nM
Protocol: as §1

[4] = target: T3, monkey SEMA4D, full length, on CHO-K1 cells (CHO-K1 cSEMA4D) (monkey); experiment: FACS, CHO-K1 cSEMA4D cells; Ab 0.000853 nM
T3 construct: whole, on cells; also called monkey SEMA4D recombinant cells
Protocol: After the cells were counted, they were diluted with PBS to 2×10⁶ cells per milliliter. After washing, 100 μL of diluted and purified leading antibodies was added to each well and the plate was incubated for 1 hour on ice. […] Cells were washed 2 times by centrifugation with FACS buffer. The cells were suspended with 200 μL of FACS buffer, FACS (FACS Verse, purchased from BD) was used to detect and analyze the results.

OD450 nm [1] | MFI [2] | OD450 nm [3] | MFI [4] | Binder
0.194 | 763 | 0.0635 | 26.1 | 38H2E3 (antibody, V domains shown, Mouse monoclonal antibody purified from hybridoma supernatant on protein A) VH: EFQLQQSGPEVVKPGASVKISCKASGYSFTDYNMNWMKQSKGKSLEWIGVISPDYGTTTYNQNFKDKATLTVDQSSSTAYMQLNSLTSEDSAVYYCAKDMYYVYAYYTMDYWGHGTSVTVSS VL: DVVMTQTPLSLPVSLGDQASISCRSSQSLVHSNGHTYLHWYLQRPGQSPTLLIYKVSNRFSGVPDRVSGSGSGTDFTLKISRVEAEDLGVYFCSQGTHVPRTFGGGTKLEIK
0.696 | 2000 | 0.0753 | 54.5 | 42B7G2 (antibody, V domains shown, Mouse monoclonal antibody purified from hybridoma supernatant on protein A) VH: QVQLQQSGAELARPGASVKLSCKASGYTFTDYGISWVKQRTGQGLEWIGEIYLRNDNSYYNEKFKGKATLTADKSSNTAYMELRSLTSEDSAVYFCARWGDHGNNYEDAMDYWGQGTSVTVSS VL: DIVLTQSPASLAMSLGKRATISCRASESVSIIGSNLIHWYQQKPGQPPKLLIYHASNLETGVPARFSGSGSRTDFTLTIDPVEEDDVAIYYCLQSRKVPYTFGGGTKLEIK

The next lines start with the binder.

Binder | OD450 nm [1] | MFI [2] | OD450 nm [3] | MFI [4]
37C4F7 (antibody, V domains shown, Mouse monoclonal antibody purified from hybridoma supernatant on protein A) VH: EFQLQQSGPEVVKPGASVKISCKASGYSFTDYNMNWMKQSKGKSLEWIGVINPNYGTTTYNQNFKGKATLTVDQSSSTAYMQLNSLTSEDSAVYYCARDMYYVYAYYTMDYWGQGTSVTVSS VL: DVVMTQTPLSLPVSLGDQASISCRSSQSLVHSNGHTYLHWYLQRPGQSPTLLIYKVSNRFSGVPDRFSGSGSGTDFTLKISRVEAEDLGVYFCSQGTHVPWTFGGGTKLEIK | 0.162 | 738 | 0.0661 | 29
37F11F9 (antibody, V domains shown, Mouse monoclonal antibody purified from hybridoma supernatant on protein A) VH: EVQLQQSGPVLVKPGASVKMSCKASGYTFTDYYMNWVKQSHGKSLEWIGLINPYSGGSTFNQKFKAKATLTVDKSSSSAYMDLNSLTSEDSAVYYCARVGDGYYGVTHGMDYWGQGTSVTVSS VL: DIVMTPSQKFMSTTVGDRVSITCKASQNVGTAVAWYQQKPGQSPTILIYSASNRYTGVPDRFTGSGSGTDFTLTISNMKSEDLADYFCQQYYIYPFTFAAGTKLELK | 0.365 | 1120 | 0.0658 | 29.5
32C8F10 (antibody, V domains shown, Mouse monoclonal antibody purified from hybridoma supernatant on protein A) VH: EVQLQQSGAELVRPGASVKLSCTASGFNIKDEYIHWVKQRPEQGLEWIGWIDPANGHTEYASRFQAKATITADTSSNTAYLQLSSLTSEDTAVYYCTTGDYDGFAYWGQGTLVTVST VL: QIVLTQSPAIMSASPGEKVTISCSARSSVSYMYWYQQKPGSSPKPWIYRTSNLASGVPARFSGSGSGTSYSLTISSMEAEDAATYYCQHYHTYPYTFGGGTKLEIK | 0.551 | 2920 | 0.0699 | 49.7
31C11G2 (antibody, V domains shown, Mouse monoclonal antibody purified from hybridoma supernatant on protein A) VH: EVQLQQSGAELVRPGASVKLSCTASGFNIKDEYIHWVKQRPEQGLEWIGWIDPANGHTEYASRFQAKATITADTSSNTAYLQLSSLTSEDTAVYYCTTGDYDGFVYWGQGTLVTVST VL: QIVLTQSPAIMSASPGEKVTIFCSARSSVSYMYWYQQKPGSSPKPWIYRTSNLASGVPARFSGSGSGTSYSLTISSMEAEDAATYYCQHYHTYPYTFGGGTKLEIK | 0.817 | 3140 | 0.0753 | 81.4
31G10C5 (antibody, V domains shown, Mouse monoclonal antibody purified from hybridoma supernatant on protein A) VH: EVQLQQSGAELVRPGASVKLSCTASGFNIKDDYIHWVKQRPEQGLEWIGWIDPANGHIEYASNFQAKATITADTSSNTAYLQLSSLTSEDTAVYYCTTGDYDGFTYWGQGTLVTVST VL: QIVLTQSPAIMSASPGEKVTISCSARSSVSYMYWYQQKPGSSPKPWIYRTSNLASGVPARFSGSGSGTSYSLTISSMEAEDAATYYCQHYHTYPYTFGGGTKLEIK | 0.526 | 3070 | 0.0694 | 61.5
